Results on 15 molecules are retold here after patent publication US20070265189A1 (published 2007).

For experiment [1], the target named is T1, human insulin receptor (HIR) (human, UniProt P06213 28-1382, limits assumed). As to the kind of experiment: competition with 125I-insulin, solubilised HIR.
The target in experiment [2] is T2, soluble HIR ectodomain (sIR) (human, UniProt P06213 28-956, limits assumed).
T2 construct: extracellular domain
As to the kind of experiment: FP on sIR, competitor FITC-RP9. The source says:
Fluorescence polarization assays (FP) were used for peptide competition studies.

Experiment [3] addresses T3, soluble human insulin receptor-immunoglobulin heavy chain chimera (sIR-Fc) (human, UniProt P06213 28-956, limits assumed, Eu3+ (LANCE) label in the TR-FRET assays).
T3 construct: extracellular domain; Construct of Bass et al., 1996; also called HIR-immunoglobulin heavy chain chimera; not shown: immunoglobulin heavy chain constant domains
In words: FP on sIR-Fc, competitor FITC-RP9.

Experiment [4] has as its target T3, soluble human insulin …. In words: TR-FRET on Eu-sIR-Fc, competitor b-S175. The protocol:
(§1) The TR-FRET assays were performed in a 384-well white microplate with a final volume of 30 μl.
Background: In TR-FRET formats the signal depends on donor and acceptor labels being close together.

Experiment [5] concerns the target T4, recombinant human IGF-1R (rhIGF-1R) (human, UniProt P08069 31-935).
T4 construct: extracellular domain; Coated on plates in the DELFIA assay and Eu3+ (LANCE) labeled in the TR-FRET assays
In words: TR-FRET; competitor against 15 nM b-20E2 on Eu-labeled rhIGF-1R.

In experiment [6] the target is T5, soluble human insulin receptor-immunoglobulin heavy chain chimera (sIR-Fc) (human, UniProt P06213 28-956, limits assumed).
T5 construct: extracellular domain; Construct of Bass et al., 1996; not shown: immunoglobulin heavy chain constant domains
In words: fluorescence polarization; competitor against 1 nM FITC-RP9 on sIR-Fc.

The target of experiment [7] is T6, human insulin receptor (HIR) (human, UniProt P06213 28-1382, limits assumed).
T6 construct: solubilised receptor
In words: 125I-insulin displacement, purified HIR.

Experiment [8] has as its target T3, soluble human insulin …. In words: TR-FRET on Eu-sIR-Fc, competitor b-RP9. The protocol: Time-resolved fluorescence resonance energy transfer assays (TR-FRET) were used for peptide competition studies.
as §1

Experiment [9] concerns the target T1, human insulin receptor (HIR). As to the kind of experiment: radio-receptor assay on HIR, competitor 125I-insulin.

With SLEEEWAQVECEVYGRGCPSESFYDWFVRQLG [S555], the affinity in experiment [1], expressed as Kd, was 0.057 nM. That is a picomolar value.

B1: S337 (peptide)
peptide 1: GSLDESFYDWFERQLGKKX
peptide 2: GSLDESFYDWFERQLGKKX
modifications: C-terminal Lig′ joined to chemical linker 23
notes: C-C dimer through chemical linker 23; also called (RP9-Lig)2-23
On to B1, for which the results for the IC50 in experiment [2], in experiment [3] and in experiment [4] were 0.2 nM, 1 nM and 0.2 nM, respectively.

Turning to FHENFYDWFVRQVSKK [H2C (D117)], the IC50 in experiment [5] stood at 460 nM; in experiment [6], 66 nM.

B2: S414 (peptide)
peptide 1: ESFYDWFERQLGKX
peptide 2: ESFYDWFERQLGKX
modifications: C-terminal Lig′ joined to chemical linker 14
notes: Lig′ = lysine with a 2-aminohydroxyacetyl group on the side chain amino group; also called (truncated(-GSLD)RP9(-KK))2-14
Take B2: the IC50 in experiment [2] came out at 0.2 nM.

B3: S300 (peptide)
peptide 1: DWLQRNANFYDWFVAELX
peptide 2: DWLQRNANFYDWFVAELX
modifications: C-terminal Lig′ joined to linker 14
notes: dimer, C-C
Regarding B3, the Kd in [7] turned out to be 50 nM. This lies in the double-digit nanomolar range.

B4: S229 (peptide)
peptide 1: SDGFYNAIELLSX
peptide 2: KHLCVLEELFWGASLFGYCSGKKX
modifications: C-terminal Lig joined to linker 12
notes: heterodimer F2-F4, C-C
In experiment [7], B4 gave an equilibrium dissociation constant (Kd) of 4.4 nM.

Turning to SIEEEWAQIKCDVWGRGCPSY [S593], the affinity in [1], expressed as Kd, was 2.2 nM.

In turn, SLEEEWAQIQHELYGPAESESFYDWFERQL [S596] returned a Kd in [1] of 0.045 nM. This Kd is about 49-fold lower than that of the molecule before.

In turn, SLEEEWAQIECEVWGRGCSGSLDESFYDWFERQL [S561] showed a dissociation constant Kd in experiment [1] of 0.018 nM.

For SLEEEWAQIECEVWGRGCPSGSLDESFYDWFERQL [S560], the affinity in [1], expressed as Kd, was 0.014 nM.

TFYSCLASLLTGTPQPNRGPWERCRKK [S327] registered a Kd in [7] of 2700 nM.

B5: S550 (peptide)
peptide: GSLDESFYDWFERQLGXK
modifications: as printed: Ac-GSLDESFYDWFERQLG-POX-K; N-terminal acetyl; POX between G and the C-terminal K
notes: POX is not explained
In turn, B5 gave a Kd in [1] of 40 nM.

With FHENFYDWFVRQVSKK (also called D117) [H2C], the half-maximal inhibitory concentration (IC50) came to 37 nM in experiment [2]; 50 nM in [3]; 1630 nM in experiment [8]; 410 nM in experiment [4]; 700 nM in experiment [9].

B6: S380 (peptide)
peptide 1: EEDWLQRNANFYDWFVAELX
peptide 2: EEDWLQRNANFYDWFVAELX
modifications: C-terminal Lig′ joined to chemical linker 9
notes: C-C dimer through chemical linker 9; also called (EE-short-S175-Lig)2-9
Take B6: the half-maximal inhibitory concentration (IC50) in [2] is 0.5 nM; in experiment [4] it was 10 nM.

Regarding LEEEWAQIQREVWHSPASESFYDWFERQL [S595], in [1], the equilibrium dissociation constant (Kd) came to 0.62 nM.

As a reminder, the Kd is the free concentration of one partner at which half of the binding sites on the other are occupied at equilibrium, for simple one-to-one binding. Low readings indicate tighter binding, high ones weaker binding. In general, IC50 refers to the point on the concentration scale where inhibition reaches its midpoint.
